Data as given in US20230414660A1 (LUDWIG INSTITUTE FOR CANCER RESEARCH, published 2023).
Substitutions are numbered along the chain they refer to. One block for each binder: values may come before it.

Target: T1, human PDL1 protein (human, UniProt Q9NZQ7 19-238, limits assumed)
T1 construct: also called plate-captured PD-L1
Assay: titration ELISA, soluble His-tagged PD1 decoy on plate-coated human PD-L1, anti-His detection

T1 sequence (Q9NZQ7 19-238 limits assumed): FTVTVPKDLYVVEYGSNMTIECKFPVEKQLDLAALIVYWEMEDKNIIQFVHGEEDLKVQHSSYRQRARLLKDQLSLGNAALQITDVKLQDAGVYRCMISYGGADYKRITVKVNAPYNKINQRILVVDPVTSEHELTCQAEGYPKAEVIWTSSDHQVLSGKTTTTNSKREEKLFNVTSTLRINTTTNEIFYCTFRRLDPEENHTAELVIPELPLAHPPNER

- Affinity to PD-L1 (relative to WT PD1): 3 fold relative to WT PD1
B2: Q133K (receptor)
chain: MASDSPDRPWNPPTFSPALLVVTEGDNATFTCSFSNTSESFVLNWYRMSPSNQTDKLAAFPEDRSQPGQDARFRVTQLPNGRDFHMSVVRARRNDSGTYLCGAISLAPKAKIKESLRAELRVTERRALEHHHHHH
notes: PD1 decoy variant, bacterial, C-terminal 6xHis

- Affinity to PD-L1 (relative to WT PD1): 1.4 fold relative to WT PD1
B3: K_78R (receptor)
chain: B2 chain with K56R, K111Q
notes: as for B2

- Affinity to PD-L1 (relative to WT PD1): 5 fold relative to WT PD1
B5: PD1_4XMUT (with 6xHis) (receptor)
chain: B2 chain with M48E, T54D, K56R, L100F
notes: Soluble monomeric, bacterial production

- Affinity to PD-L1 (relative to WT PD1): 10 fold relative to WT PD1
B6: PD1_4XMUT_M70 (with 6xHis) (receptor)
chain: B2 chain with T54D, K56R, L100F

- Affinity to PD-L1 (relative to WT PD1): 7.1 fold relative to WT PD1
B7: Core A (receptor)
chain: B2 chain with M48E, T54D, K56R, L100E
notes: as for B2

- Affinity to PD-L1 (relative to WT PD1): 7.2 fold relative to WT PD1
B8: PD1_6XD (with 6xHis) (receptor)
chain: B2 chain with M48E, T54V, K56R, L100F, A110W
notes: as for B5

- Affinity to PD-L1 (relative to WT PD1): 3 fold relative to WT PD1
B10: A132W (receptor)
chain: B2 chain with A110W, K111Q
notes: as for B2

- Affinity to PD-L1 (relative to WT PD1): 1.7 fold relative to WT PD1
B13: Core L (receptor)
chain: B2 chain with M48E, T54D, K56R, L100E, A110L
notes: as for B2

- Affinity to PD-L1 (relative to WT PD1): 1020 fold relative to WT PD1
B15: Core_W (receptor)
chain: B2 chain with M48E, T54D, K56R, L100E, A110W
notes: as for B2

- Affinity to PD-L1 (relative to WT PD1): 7.5 fold relative to WT PD1
B17: PD1_6XDM (with 6xHis) (receptor)
chain: B2 chain with T54V, K56R, L100F, A110W
notes: as for B5

- Affinity to PD-L1 (relative to WT PD1): 8.3 fold relative to WT PD1
B18: T_76D (receptor)
chain: B2 chain with T54D, K111Q
notes: as for B2

The next lines start with the binder.

B1: WT PD1 (receptor)
chain: B2 chain with K111Q
notes: Soluble monomeric protein made in bacteria with a C-terminal 6xHis tag and detected with anti-His antibody; also called WT PD1 decoy; WT PD-1 decoy
- Affinity to PD-L1 (relative to WT PD1): 1 fold relative to WT PD1

B4: B2 4XB (receptor)
chain: B2 chain with M48D, T54D, K56R
notes: as for B2
- Affinity to PD-L1 (relative to WT PD1): 7.3 fold relative to WT PD1

B9: M70E (receptor)
chain: B2 chain with M48E, K111Q
notes: as for B2
- Affinity to PD-L1 (relative to WT PD1): 5.2 fold relative to WT PD1

B11: 6XC (receptor)
chain: B2 chain with M48E, T54V, K56R, L100I, A110W
notes: as for B2
- Affinity to PD-L1 (relative to WT PD1): 1.1 fold relative to WT PD1

B12: L122E (receptor)
chain: B2 chain with L100E, K111Q
notes: as for B2
- Affinity to PD-L1 (relative to WT PD1): 3 fold relative to WT PD1

B14: 5XD (receptor)
chain: B2 chain with M48E, T54V, K56R, L100F
notes: as for B2
- Affinity to PD-L1 (relative to WT PD1): 1.1 fold relative to WT PD1

B16: 6XB (receptor)
chain: B2 chain with M48E, T54D, K56R, L100I, A110W
notes: as for B2
- Affinity to PD-L1 (relative to WT PD1): 1.3 fold relative to WT PD1

B19: X1 4XMut (receptor)
chain: B2 chain with M48E, T54D, K56R
notes: as for B2
- Affinity to PD-L1 (relative to WT PD1): 5.6 fold relative to WT PD1
